Measured values from the supplement of paper PMC9732359.
± gives the uncertainty stated by the source.

Assay: protein stability index of a GFP-peptide fusion (yeast GPS) (PSI 1-4); higher = more stable; sorted into four equal gates, so the index is relative within each strain
Summary of the method: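 The protein stability index combines read frequencies across sorting gates, each weighted by its gate number and then summed. To obtain those frequencies, a pooled yeast library of GFP fusions to tiled 17-residue yeast protein peptides, on a plasmid also expressing Cherry, was grown to mid-log phase in leucine-free medium. The cells were sorted into four equal gates by GFP/Cherry ratio before plasmid amplification by PCR and Illumina sequencing.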

Sequence | protein stability index (doa10∆) | protein stability index (pdr5∆) | protein stability index (san1∆) | protein stability index (ubr1∆)
FDPSKDVLINELLDQVT [CDC53] | 2.74 ± 0.066 | 2.15 ± 0.047 | 2.24 ± 0.087 | 2.5 ± 0.054
MIQTPRELLNPRYTYHT [YML031W/NDC1] | 2.95 ± 0.078 | 2.83 ± 0.081 | 2.98 ± 0.11 | 3.35 ± 0.14
ANIQLDFPELKPYKQVK [FAS2] | 3.16 ± 0.1 | 2.85 ± 0.094 | 2.97 ± 0.11 | 3.17 ± 0.077
KSGKTIVITSITGGIIE [RRP43] | 1.6 ± 0.072 | 1.84 ± 0.077 | 2.07 ± 0.1 | 1.78 ± 0.1
DLAFGGEANKHHWEDLQ [RPN5] | 3.09 ± 0.12 | 3.31 ± 0.16 | 3.07 ± 0.11 | 3.21 ± 0.091
LEFSIYHRLSNKDMIKN [CSN12] | 2.36 ± 0.096 | 2.91 ± 0.13 | 2.36 ± 0.18 | 2.79 ± 0.15
TTLGKLSTSVGWKYEDV [RPL16A] | 2.87 ± 0.069 | 3 ± 0.071 | 2.97 ± 0.078 | 2.73 ± 0.073
LGKYDLTVIEKLDSKKI [SRP68] |  | 2.86 ± 0.23 | 3.53 ± 0.12 | 3.63 ± 0.16
DSMLFVFGFRANKMRQD [SMC4] | 2.27 ± 0.072 | 2.24 ± 0.08 | 2.08 ± 0.12 | 2.7 ± 0.057
VRIIKHTLDIINVLTDQ [RPS5] | 2.11 ± 0.053 | 2.46 ± 0.059 | 2.62 ± 0.053 | 2.4 ± 0.044
EIIGGGSKSASKQTPQP [ISW2] | 2.95 ± 0.081 | 3.08 ± 0.092 | 2.97 ± 0.068 | 2.96 ± 0.06
NVESAGAMTPEEIFFKS [RPC40] | 3.04 ± 0.074 | 3.31 ± 0.085 | 3.17 ± 0.054 | 3.27 ± 0.045
SKKDFKIIDNPKSFLKK [YMR129W/POM152] | 3.05 ± 0.082 | 3.35 ± 0.095 | 3.08 ± 0.07 | 3.17 ± 0.092
KAGVKESDTGLAPSHLW [RPT1] | 2.93 ± 0.16 |  | 3.09 ± 0.12 | 
YRMKGGRVTFIPLNRLS [SMC3] | 1.46 ± 0.14 | 1.15 ± 0.099 | 1.07 ± 0.24 | 1.36 ± 0.13
EKLTMVFQDNVYKIYNH [SIN4] | 2.08 ± 0.06 | 2.53 ± 0.053 | 1.6 ± 0.086 | 1.81 ± 0.037
VNDKYKTCAEVIGGNSL [SMC3] | 3.06 ± 0.14 | 3.15 ± 0.16 | 3.29 ± 0.11 | 3.21 ± 0.15
ATVLSRKILKKTFKNPK [RPN5] | 2.4 ± 0.044 | 2.67 ± 0.047 | 2.55 ± 0.057 | 2.87 ± 0.037
MKANPALYVLRERIRKG [PRP8] | 2.47 ± 0.23 | 2.87 ± 0.11 | 2.66 ± 0.12 | 2.41 ± 0.29
RLVIKEALVERRRAFKR [RPB4] | 3.13 ± 0.29 | 2.67 ± 0.14 | 2.8 ± 0.22 | 
MTMASKSLEVVNADTVG [NSL1] | 2.96 ± 0.078 | 2.82 ± 0.075 | 2.7 ± 0.068 | 2.38 ± 0.053
LAFNYITYDKQEPSASQ [SRP68] | 3.19 ± 0.048 | 3.15 ± 0.056 | 2.97 ± 0.056 | 2.93 ± 0.037
ILQYFEKWISSKNSKLS [SIR3] | 2.8 ± 0.15 | 1.48 ± 0.087 | 2 ± 0.26 | 1.27 ± 0.083
EYIDDHRSGKIVVQLNG [RPS22A] | 3.21 ± 0.23 | 3.28 ± 0.17 | 2.77 ± 0.13 | 2.47 ± 0.23
KFELGRQPANTKIGAKR [RPS8A] | 2.87 ± 0.06 | 3.1 ± 0.068 | 2.91 ± 0.11 | 3.18 ± 0.055
VLALKVEDFLERRLQTQ [RPS9A] | 2.42 ± 0.14 | 2.86 ± 0.092 | 2.63 ± 0.072 | 2.83 ± 0.076

Sequence | protein stability index (doa10∆) | protein stability index (pdr5∆) | protein stability index (san1∆) | protein stability index (ubr1∆)
SSLRKNASGNKRSGVIE [ITC1] | 2.96 ± 0.22 | 2.22 ± 0.15 |  | 2.06 ± 0.089
ARILGTRALQISMNAPV [RPO26] |  | 1.45 ± 0.24 |  | 1.39 ± 0.13
TTTSFTTSEATANDRQI [RPN4] | 2.95 ± 0.051 | 3.13 ± 0.055 | 2.55 ± 0.063 | 3.25 ± 0.042
YLHIRDKILQLNDRFQT [PGD1] | 2.62 ± 0.056 | 2.02 ± 0.064 | 2.38 ± 0.053 | 2.27 ± 0.038
RNSFIRDMIMKRNSDKV [ITC1] | 2.84 ± 0.16 | 2.86 ± 0.14 | 2.29 ± 0.16 | 2.83 ± 0.2
LLQLKYFSNKTSTGIIR [POP5] | 2.46 ± 0.19 | 1.84 ± 0.13 | 1.35 ± 0.29 | 1.98 ± 0.062
RALYTPFLLMELHKKLV [YDL116W/NUP84] | 1.82 ± 0.094 | 1.45 ± 0.087 | 1.29 ± 0.22 | 1.26 ± 0.13
GCGNTQPTIRKDGLKLV [RPO21] | 2.42 ± 0.084 | 2.11 ± 0.056 | 2.3 ± 0.17 | 2.41 ± 0.045
KYVLITGAGKGSIGAEV [FAS2] | 3.22 ± 0.24 | 3.27 ± 0.12 | 3.63 ± 0.099 | 3.05 ± 0.093
TGAGVDVNTNANANANA [SNF11] | 3.12 ± 0.074 | 3.31 ± 0.07 | 3.19 ± 0.045 | 3.34 ± 0.051
VPISTSQTNNSFLSGVK [SIR4] | 2.56 ± 0.054 | 2.73 ± 0.07 | 2.63 ± 0.067 | 2.95 ± 0.057
EKKPASKAPAEKKPAAK [HTB1] | 3.13 ± 0.08 | 3.19 ± 0.063 | 3 ± 0.059 | 3.11 ± 0.054
LNAIILKLEKLNTNRTF [SMC3] | 2.19 ± 0.047 | 2.31 ± 0.051 | 2.24 ± 0.09 | 2.76 ± 0.048
WVIRKQRRTNNSGVGSA [MED6] | 2.48 ± 0.27 | 2.36 ± 0.14 | 2.58 ± 0.11 | 2.8 ± 0.14
ILNINNSTSKNTLLQQQ [SWI1] | 2.37 ± 0.052 | 2.87 ± 0.08 | 2 ± 0.069 | 2.4 ± 0.047
EEWLNTKDPDEQQLFEI [CSN9] | 3.06 ± 0.11 | 3.16 ± 0.12 | 3.24 ± 0.051 | 3.15 ± 0.075
LFGNNAGNTTTGGGLFG [YGL172W/NUP49] | 2.95 ± 0.18 | 3.37 ± 0.25 |  | 3.36 ± 0.17
VSSPESEKNKRQSKSSG [ITC1] | 3.03 ± 0.059 | 3.17 ± 0.052 | 2.98 ± 0.045 | 3.14 ± 0.038
VLKESIVNICDIQEEQV [PUP1] | 3.15 ± 0.22 | 3.04 ± 0.22 | 3.33 ± 0.14 | 
TRYMFQRDFRKHGAVHM [RPL21B] | 2.22 ± 0.099 | 2.14 ± 0.06 | 1.79 ± 0.12 | 1.99 ± 0.077
YPVVEVERGRVGACTDE [RRP43] | 3.24 ± 0.1 | 2.8 ± 0.25 | 3.16 ± 0.23 | 3.03 ± 0.091
NSAQNNSTTSGGLFGNK [YGR119C/NUP57] | 3.25 ± 0.13 | 2.91 ± 0.13 | 3.2 ± 0.073 | 3.24 ± 0.17
DIKANGSIQKGMPHKFY [RPL21A] | 3.01 ± 0.21 | 3.07 ± 0.15 | 3.07 ± 0.28 | 3.64 ± 0.14
VRATFRNNLPAKTFGAS [RPL33A] | 2.85 ± 0.097 | 3.05 ± 0.16 | 3.2 ± 0.11 | 3.31 ± 0.098
RSLGLQQVVCIFSYGPH [POP6] | 1.51 ± 0.028 | 1.7 ± 0.037 | 1.57 ± 0.049 | 1.64 ± 0.026
VLVLRGTLEGHNGWVTS [ASC1] | 2.75 ± 0.15 | 2.1 ± 0.14 | 2.1 ± 0.15 | 2.76 ± 0.18
